Reference: the RNAGym collection of RNA variant scans (doi:10.1073/pnas.2313332121)
Fewer inactive variants are shown than the library holds.

B1: TPR 5TU (parent)
chain: GGAUCUUCUCGAUCUAACAAAAAAGACAAAUCUGCCACAAAGCUUGAGAGCAUCUUCGGAUGCAGAGGCGGCAGCCUUCGGUGGCGCGAUAGCGCCAACGUUCUCAACUAUGACACGCAAAACGCGUGCUCCGUUGAAUGGAGUUUAUCAUG

Variants of: B1
Assay: polymerase ribozyme fitness, log enrichment relative to wild type (log ratio); higher = more active; in vitro selection for triplet polymerase activity
Procedure, shortened: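 One round of in vitro selection, in triplicate, was applied to PCR-built, transcribed mutant libraries of each subunit of a heterodimeric triplet polymerase ribozyme. The steps were annealing with a biotinylated primer, partner subunit and triplets, incubation frozen at −7 °C, gel excision of extended constructs, streptavidin-bead capture and RT-PCR. Fitness is the logarithm, base 2, of genotype enrichment over wild-type enrichment from inverse-variance-weighted replicate averages of Illumina-sequenced inputs and outputs, keeping genotypes with ≥10 input reads and ≥1 read per output.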

Variant | polymerase ribozyme fitness (log ratio)
GGAUCUUCUCGAUCUAACAAAAGAGACAAAUCUGCCACAAAGCUUAAGAGCAUCUACGGAUGCAGAGGCGGCAGCCUUCGGUGGCGAGAUAGCGCCAACGUUCUCAACUAUGACACGCAAAACGCGUGCUCCGUUGAAUGCAGUUUAUCAUG [A23G G46A U56A C87A G141C] | ≤ -4.2
GGAUCUUCUCGAUCUAACAAAAGAGACAAAUCUGCCACAAAGCUUGAGAGCAUCUUCGGAUGCAGAGGCGGCAGCCUUCGGUGGAGCGAUAGCGCCACCGUUCUCAACUAUGACACGCAAAACGCGUGCUCCGUUGAAUGGAGUUUAUCAUG [A23G C85A A98C] | -3.17
GGAUCUUCUCGAUCUAACAAAAGAGACAAAUCUGCCACAAAGCUUGAGAGCAUCUUUGGAUGCAGAGGCGGCAGCCUUCGGUGGCGCGAUAGCGCCAACGUUCUCAACUAUGACACGCAAAACGCGUGCUCCGUUGAAUGGAGUUUAUCAUG [A23G C57U] | -2.27
GGAUCUUCUCGAUCUAACAAAAGAGACAAAUCGGCCACAAAGCUUGAGAGCAUCUUCGGAUGCAGAGGCGGCAGCCUUCGGUGGCGCGAUAGCGCCAACCUUCUCAACUAUGACACGCAAAACGCGUGCUCCGUUGAAUGGAGUUUACCAUG [A23G U33G G100C U148C] | ≤ -4.2
GGAUCUUCUCGAUCUAACAAAAGAGACAAAUCUGCCACAAAGCUUGAGAGCAUAGUCACAUGCAGAGGCGGCAGCCUUCGGUGGCGCGAUAGCGCCAACGUUCUCAACUAUGACACGCAAAACGCGUGCUCCGUUGAAUGGAGUUUAUCAUG [A23G C54A U55G G58A G59C] | -4.08
GGAUCUUCUCGAUCUAACAAAAGAGACAAAUCUGCCACAAAGCUUGAGAGCAUCUUCGGAUGCAGAGGCGGUAGCCUUCGGUGGCGCGAUAGCGCCAACGUUCUCAACUAUGACACGCAAAACGCGUGCUCCGUUGAAUGGAGUUUAUCAUG [A23G C72U] | -3.74
GGAUCUUCUCGAUCUAACAAAAGAGACAAAUCUGCCACAAAGCUUGAGAGCAUCUACGGAUGAAGAGGCGGCAGCCUUCGGUGGUGCGAUAGUGCCAACGUUCUCAACUAUGACACGCAAAACGCGUGCUCCGUUGAAUGGAGUUUAUCAUG [A23G U56A C63A C85U C93U] | ≤ -4.2
GGAUCUUCUCGAUCUAACAAAAGAGACAAAUCUGCCACAAAGCUUGAGAGCAUCUUCGUAUGCAGAGGCGGCAGCCUUCGGUGGCGCGAUAGCGUCAACGUUCUCAACUAUGACACGCAAAACGCGUGCUCCGUUGAAUGGAGUUUAUCAUG [A23G G59U C95U] | -3.41
GGAUCUUCUCGAUCUAACAAAAGAGACAAAUCUGCCAGAAAGCUUGAGAGCAUCUUCGGAUGCAGAGGCGGCAGCCUUCGGUGGCGCGAUAGCGUCAACGUUCUCAACUAUGAGACGCAAAACGCGUGCUCCGUUGAAUGGAGUUUAUCAUG [A23G C38G C95U C114G] | -3.85
GGAUCUUCUCGAUCUAACAAAAGAGACAAAUCUGCCACAAAGCUUGAGACCAUCUUCGGAUGCAGAGGCGGCAGCCUUCGGUGUGGCGAUAGCGCCAACGUUCUCAACUAUGACACGCAAAACGCGUGCUCCGUUGAAUGGAGUUUAUCCUG [A23G G50C G84U C85G A150C] | -3.98
GGAUCUUCUCGAUCUAACAAAAGAGACAAAUCUGCCACAAAGCUUGAGAGCAUCUUCGGAUGCAGAGGCGGCAGCCUUCGGUGGCGCGAUAGUGCCAACGUUCUCAACUAUGACACGCAAAACGCGUGCUCCGUUGAAUGGAGUUUAUCAUG [A23G C93U] | -3.77
GGAUCUUCUCGAUCUAACAAAAGAGACAAAUCUGCCACAAAGCUUGAUAGCAUCUUCGGAUGCACAGGCGGUAGCCUUCGCUUGCGCGAUAGCGCCAACGUUCUCAACUAUGACACGCAAAACGCGUGCUCCGUUGAAUGGAGUUUAUCAUG [A23G G48U G65C C72U G81C G83U] | ≤ -4.2
GGAUCUUCUCGAUCUAACAAAAGAGACAAAUCUGCCACAAAGCUUGAGAGCAUCAUCGGAUGCAGAGGCGGCAGCCUUCGGUGGCGUGAUAGCGCCAACGUUCUCAACUAUGACACGCAAAACGCGUGCUCCGUUGAAUGGAGUUUAUCAUG [A23G U55A C87U] | -2.98
GGAUCUUCUCGAUCUAACAAAAGAGACAAAUCUGCCAUAAAGCUUGAGAGCAUCUUCGGAAGCAGAGGCGGCAGCCUUCGGUGGCGCGAUAGCGCCAACGUUCUCAACUAUGACACGCAAAACGCGUGCUCCGUUGAAUGGAGUUUAUCAUG [A23G C38U U61A] | ≤ -4.2
GGAUCUUCUCGAUCUAACAAAAGAGACAAAUCUGCCACAAAGCUUGAGACCAUCUUCGGAUGCAGAGGCGGCAGCCUUCGGUGGCCCGGUAUCGCCUACGUUCUCAACUAUGACACGCAAAACGCGUGCUCCGUUGAAUGCAGUUUAUCAUG [A23G G50C G86C A89G G92U A97U G141C] | ≤ -4.2
GGAUCUUCUCGAUCUAACAAAAGAGACAAAUCUGCCACAAAGCUUGAGAGCAUCUUCGGAUGCAGAGGCGGCAGCCUUCGGUGGUGCGAUAGCGUCAACGUUCUCAACUAUGACACGCAAAACGCGUGCUCCUUUGAAUGGAGUUUAUCAUG [A23G C85U C95U G133U] | -4
GGAUCUUCUCGAUCUAACAAAAGAGACAAAUCUGCCACAAAGCUUGAGAGCAUCUUCGGAUGCAGAGGCGGCAGCCUUCGGUGUCGCGAUAGCGCCAACGUUCUCAACUAUGACACGCAAAACGCGUGCUCCGUUGAAUGGAGUUUAUCAUG [A23G G84U] | -3.88
GGAUCUUCUCGAUCUAACAAAAGAGACAAAUCUGCCACAAAGCUUGAGAGCAUCUUCGUAUGCAGAGGCGGCAGCCUUCGGUGGCGCGAUAGCGUCAACGUUCUCAACUGUGACACGCAAAACGCGUGCUCCGUUGAAUGGAGUUUAUCAUG [A23G G59U C95U A110G] | -3.86
GGAUCUUCUCGAUCUAACAAAAGAGACAAAUCUGCCACAAAGCUUGAGAUCAUCUUCGGAUGCAGAGGCGGCAGCCUUCGGUGGCGCGAUAGCGCCAACGUUCUCAACUAUGACACGCAAAACGCGUGCUCCGUUGAAUGGAGUUGAUCAUG [A23G G50U U146G] | -3.73

Variant | polymerase ribozyme fitness (log ratio)
GGAUCUUCUCGAUCUAACAAAAGAGACAAAUCUGCCACAAAGCUUGAGAGCAUCUUCGGAUGCAGAGGCGGCAGCCUUCGAUGGCGCGAUAGCGCCAACGUUCUCAACUAUGACACGCAAUACGCGUGCUCCGUUGAAUGUAGUUUAUCAUG [A23G G81A A121U G141U] | -2.76
GGAUCUUCUCGAUCUAACAAAAGACACAAAUCUGCCACACAGCUUGAGAGCAUCUUCAGAAGCAGAGGCGGCAGCCUUCCGUGGCGCCAUAGCGCCAACGUUCUCAACUAUGACACGCAAAACGCGUGCUCCGUUGAAUGGAGUUUAUCAUG [A23G G25C A40C G58A U61A G80C G88C] | ≤ -4.2
GGAUCUUCUCGAUCUAACAAAAGAGACAAAUCUGCCACAAAGCUUGAGAGCAUCUUCGGAUGCAGAGGCGGCAGCCUUCGGUGGCGCGAUAGCGCCAACGUUCUCAACUAUGACACGCAAAACCCGUGCUCCGUUGAAUGGAGUUUGUCGUG [A23G G124C A147G A150G] | ≤ -4.2
GGAUCUUCUCGAUCUAACAAAAGAGACAAAUCUGCCACAAAGCUUGAGAGCAUCUUCGGAUGCAGAGGCGGCAGCCUUCGGUGGCGCGAUAUCGCCAACGUUCUCAACUAUGACACGCAAAACGCGUGCUCCGUUGAAUGGAGUUUAUCAUG [A23G G92U] | -3.31
GGAUCUUCUCGAUCUAACAAAAGAGACAAAUCUGCCACAAAGCUUGAGAGCAUCUUCGGAGGCAGAGGCGGCAGCCUUCGGUGGCGCGAUAGGGCCAACGUUCUCAACUAUGACACGCAAAACGCAUGCUCCGUUGAAUGGAGUUUAUCAUG [A23G U61G C93G G126A] | ≤ -4.2
GGAUCUUCUCGAUCUAACAAAAGACACAAAUCUGCCACAAAGCUUGAGACCAUCUUAUGAUGCAGAGGCGGCAGCCUUCGGUGGUGCGAUAGCGCCAACGUUCUCAACUAUGACACGCAAAACGCGUGCUCCGUUGAAUGGAGCUUAUCAUG [A23G G25C G50C C57A G58U C85U U144C] | ≤ -4.2
GGAUCUUCUCGAUCUAACAAAAGAGACAAAUCUGCCACAAAGCUUGAGAGCAUCUUCGGAUGCAGAGGCGGCAGCCUUCGGUGGCGCGAUAGCGCCAACGUUCUCAACUAUGAUACGCAAAACGCGUGCUCCGUUGAAUGGAGUUUAUCAUG [A23G C114U] | -3.53
GGAUCUUCUCGAUCUAACAAAAGAGACAAAUCUGCCACAAAGCUUGAGAGCAUCUUCGGAUGCAGAGGCGGCAGCCUUCGGUGGCGUGAUAGCGCCAACGUUCUCAACUAUGACACGCAAAACGCGUGCUCCGUUGAAUGGAGUUUAUCAUG [A23G C87U] | -3.14
GGAUCUUCUCGAUCUAACAAAAGAGACAAAUCUGCCACAAAGCUUGAGAGCAUUUUCGGAUGCAGAGGCGGCAGCCUUCGGUGGCGCGAUAGUGCCAACGUUCUCAACUAUGACACGCAAAACGCGUCCUCCGUUGAAUGGAGUUUAUCAUG [A23G C54U C93U G128C] | ≤ -4.2
GGAUCUUCUCGAUCUAACAAAAGAGACAAAUCUGCCACAAAGCAUGAGAGCAUCUUCGGAAGCAGAGGCUGCAGCGUUCGGUGGCGCGAUAGGGCCAACGUUCUCAACUAUGACACGCAAAACGCGUGCUCCGUUGAAUGGACUUUAUCAUG [A23G U44A U61A G70U C76G C93G G143C] | ≤ -4.2
GGAUCUUCUCGAUCUAACAAAAGAGACAAAUCUGCCACAAAGCUUGAGAGCAUCUUCGGAUGCAGAGGCGGCAGCCUUGGGUGGCGCGAUAGCGCCAACGUUCUCAACUAUGACACGCAAAACGCGUGCUCCGUUGAAUGGAGUUUAUCAUG [A23G C79G] | ≤ -4.2
GGAUCUUCUCGAUCUAACAAAAGAGACAAAUCUGCCACAAAGCUUGAGAGUAUCUUCGGAUGCACAGGCGGCAGCCUUCGGUGGCGCCAUAGCGCCAACGUUCUCAACUAAGACACGCAAAACGCGUGCUGCGUUGAAUGGAGUUUAUGAUG [A23G C51U G65C G88C U111A C131G C149G] | ≤ -4.2
GGAUCUUCUCGAUCUAACAAAAGAGACAAAUCUGCCACAAAGCUUGAGAGCAUCUUCGGAUACAGAGGCGGCUGCGUUCGGUGGCGCAAUAGCGCCAACGUUCUUGACUAUGACACGCAAAACGCGUGCUCCGUUGAAUGGAGUUUAUCAUG [A23G G62A A73U C76G G88A C105U A106G] | ≤ -4.2
GGAUCUUCUCGAUCUAACAAAAGAGACAAAUCUGCCACAAAGCUUGAGAGCAUCUUCUGAUGCAGAGGCGGCAGCCUUCGGUGGCGCGAUAGCGCCAACGUUCUCAAGUAUGACACGCAAAACGCGUGCUCCGUGGAAUGGAGUUUAUCAUG [A23G G58U C108G U135G] | ≤ -4.2
GGAUCUUCUCGAUCUAACAAAAGAGACAAAUCUGCCACAAAGCUUGAGAGCAUCUUCGGAUGCAGAGGCGGCAGCAUUCGGUGGCGCGAUAGCGCCAACGUUCUCAACUAUGACACGCAAAACGCGUGCUCCGUUGAAUGGAGUUUAUCAUG [A23G C76A] | -2.49
GGAUCUUCUCGAUCUAACAAAAGAGACAAAUCUGCCACAAAGCUUGAGAGCAUCUUCGAAUGCAGAGUCGGCAGCCUUCGGUGGCGCGAUAGCGCCAACGUUCUCAACUAUGACACGCAAAACGCGUGCUCCGUUGAAUGGUGUUUAUCAUG [A23G G59A G68U A142U] | ≤ -4.2
GGAUCUUCUCGAUCUAACAAAAGAGACAAAUCUGCCACAAAGCUUCAGAACAUCUUCGGAUGCAGAGGCGGCAGCCUUCGGUGGCGCGAUAACGCCAACGUUCUCAACUAUGACACGUAAAACGCGUGCUCCGUUGAAUGGUGUUUAUCAUG [A23G G46C G50A G92A C118U A142U] | ≤ -4.2
GGAUCUUCUCGAUCUAACAAAAGAGACAAAACUGCCACAAAGCUUGAGAGCAUCUUCCGAUGCAGAGGCCGCAGCCUUCGGUGGCGCGAUAGGGCCAACGUUCUCAGCUAUGACACGCAAAACGCGUGCUCCGUUGAAUGGAGUUUAUCAUG [A23G U31A G58C G70C C93G A107G] | ≤ -4.2
GGAUCUUCUCGAUCUAACAAAAGAGACAAAUCUGCCACAAAGCUUGAGAGCAUCUUCGGAUGCAGAGGCGGCAGCCUUCGGUGGCGCGAUAGUGCCAACGAUCUCAACUAUGACACGCAAAACGCGUGCUCCGUUGAAUUGAGUUUAUCAUG [A23G C93U U101A G140U] | -3.86
